The values below come from US10087225B2, “Formulation of MK2 inhibitor peptides” (MOERAE MATRIX, INC., priority 2015, dated 2018).

Among the targets are ALK(h) (Homo sapiens, UniProt Q9UM73); BRK(h) (Homo sapiens, UniProt Q13882); Met(D1246H)(h) (Homo sapiens, UniProt P08581, D1228H); MLK1(h) (Homo sapiens, UniProt P80192); Ret(h) (Homo sapiens, UniProt P07949); SAPK2a(T106M)(h) (Homo sapiens, UniProt Q16539, T106M).
Test in all cases: Kinase Profiling Assay
Type in all cases: biochemical
Common to all, as to conditions: for % activity: 100 μM

For a further assay, the target named is T1, BrSK1(h) (Homo sapiens, UniProt Q8TDC3).
T1 sequence (Q8TDC3 1-778): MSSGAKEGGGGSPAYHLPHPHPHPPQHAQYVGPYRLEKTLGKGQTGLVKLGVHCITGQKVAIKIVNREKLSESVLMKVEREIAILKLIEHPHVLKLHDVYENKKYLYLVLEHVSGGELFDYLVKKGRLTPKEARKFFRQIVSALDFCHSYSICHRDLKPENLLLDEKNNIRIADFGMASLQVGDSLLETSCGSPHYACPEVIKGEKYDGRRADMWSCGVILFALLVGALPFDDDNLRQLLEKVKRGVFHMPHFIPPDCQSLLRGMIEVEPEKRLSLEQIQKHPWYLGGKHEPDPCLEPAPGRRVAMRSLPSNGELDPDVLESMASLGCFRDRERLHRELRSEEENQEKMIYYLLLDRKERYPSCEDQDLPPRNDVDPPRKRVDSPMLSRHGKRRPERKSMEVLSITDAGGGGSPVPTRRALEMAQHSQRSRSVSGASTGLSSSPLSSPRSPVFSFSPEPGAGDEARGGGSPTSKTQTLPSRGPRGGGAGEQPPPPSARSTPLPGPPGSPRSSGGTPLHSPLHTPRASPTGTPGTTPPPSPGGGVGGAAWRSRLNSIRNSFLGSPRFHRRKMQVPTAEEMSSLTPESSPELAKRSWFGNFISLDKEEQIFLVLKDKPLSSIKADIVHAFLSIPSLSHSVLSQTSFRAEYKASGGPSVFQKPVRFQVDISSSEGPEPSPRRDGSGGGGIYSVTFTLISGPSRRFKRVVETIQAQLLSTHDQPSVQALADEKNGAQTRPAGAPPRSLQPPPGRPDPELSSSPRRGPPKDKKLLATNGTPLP

Another assay has as its target T2, Itk(h) (Homo sapiens, UniProt Q08881).
T2 sequence (Q08881 1-620): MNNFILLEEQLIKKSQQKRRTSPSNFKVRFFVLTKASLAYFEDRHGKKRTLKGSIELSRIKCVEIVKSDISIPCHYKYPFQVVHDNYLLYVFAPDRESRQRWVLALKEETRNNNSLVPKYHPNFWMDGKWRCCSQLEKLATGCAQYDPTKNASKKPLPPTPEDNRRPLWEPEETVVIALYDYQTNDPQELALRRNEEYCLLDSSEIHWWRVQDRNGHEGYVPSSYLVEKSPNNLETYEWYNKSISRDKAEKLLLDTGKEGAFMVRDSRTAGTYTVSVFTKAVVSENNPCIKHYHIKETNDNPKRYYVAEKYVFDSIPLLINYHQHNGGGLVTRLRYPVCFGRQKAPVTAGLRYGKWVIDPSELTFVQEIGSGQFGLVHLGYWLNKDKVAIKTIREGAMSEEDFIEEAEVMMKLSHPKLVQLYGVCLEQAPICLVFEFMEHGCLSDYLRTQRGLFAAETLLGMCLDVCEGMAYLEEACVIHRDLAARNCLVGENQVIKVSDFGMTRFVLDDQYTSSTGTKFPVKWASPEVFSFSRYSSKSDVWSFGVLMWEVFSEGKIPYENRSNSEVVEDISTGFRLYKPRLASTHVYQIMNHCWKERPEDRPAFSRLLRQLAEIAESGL

A further assay has as its target T3, ULK2(h) (Homo sapiens, UniProt Q8IYT8).
T3 sequence (Q8IYT8 1-1036): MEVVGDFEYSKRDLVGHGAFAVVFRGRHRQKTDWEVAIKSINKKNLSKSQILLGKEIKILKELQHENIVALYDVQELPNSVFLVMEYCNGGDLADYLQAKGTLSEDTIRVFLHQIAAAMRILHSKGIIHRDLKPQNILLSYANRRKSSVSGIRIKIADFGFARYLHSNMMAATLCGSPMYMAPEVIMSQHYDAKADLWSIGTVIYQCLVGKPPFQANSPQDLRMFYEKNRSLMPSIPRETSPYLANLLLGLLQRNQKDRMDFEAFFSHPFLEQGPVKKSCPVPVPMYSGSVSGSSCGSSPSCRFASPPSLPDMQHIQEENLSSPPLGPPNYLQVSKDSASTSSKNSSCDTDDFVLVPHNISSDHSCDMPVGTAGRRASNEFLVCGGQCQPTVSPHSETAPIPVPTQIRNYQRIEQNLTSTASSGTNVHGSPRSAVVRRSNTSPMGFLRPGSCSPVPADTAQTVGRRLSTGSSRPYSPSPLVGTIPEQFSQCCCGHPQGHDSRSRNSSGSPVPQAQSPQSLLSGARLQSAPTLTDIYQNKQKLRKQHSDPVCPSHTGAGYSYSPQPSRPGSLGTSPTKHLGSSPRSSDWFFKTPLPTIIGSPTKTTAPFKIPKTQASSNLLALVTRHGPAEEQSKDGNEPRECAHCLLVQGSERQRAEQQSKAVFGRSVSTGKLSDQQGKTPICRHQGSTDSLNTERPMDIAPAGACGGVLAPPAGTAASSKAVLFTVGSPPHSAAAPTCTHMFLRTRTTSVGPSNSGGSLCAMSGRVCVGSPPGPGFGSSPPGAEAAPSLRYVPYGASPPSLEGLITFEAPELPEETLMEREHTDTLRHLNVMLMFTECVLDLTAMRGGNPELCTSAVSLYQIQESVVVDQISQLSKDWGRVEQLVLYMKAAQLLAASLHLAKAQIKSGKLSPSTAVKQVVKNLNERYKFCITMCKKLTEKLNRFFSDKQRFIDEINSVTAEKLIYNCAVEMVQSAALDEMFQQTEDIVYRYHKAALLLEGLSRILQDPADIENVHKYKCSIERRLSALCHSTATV

Sequence of ALK(h) (Q9UM73 19-1620): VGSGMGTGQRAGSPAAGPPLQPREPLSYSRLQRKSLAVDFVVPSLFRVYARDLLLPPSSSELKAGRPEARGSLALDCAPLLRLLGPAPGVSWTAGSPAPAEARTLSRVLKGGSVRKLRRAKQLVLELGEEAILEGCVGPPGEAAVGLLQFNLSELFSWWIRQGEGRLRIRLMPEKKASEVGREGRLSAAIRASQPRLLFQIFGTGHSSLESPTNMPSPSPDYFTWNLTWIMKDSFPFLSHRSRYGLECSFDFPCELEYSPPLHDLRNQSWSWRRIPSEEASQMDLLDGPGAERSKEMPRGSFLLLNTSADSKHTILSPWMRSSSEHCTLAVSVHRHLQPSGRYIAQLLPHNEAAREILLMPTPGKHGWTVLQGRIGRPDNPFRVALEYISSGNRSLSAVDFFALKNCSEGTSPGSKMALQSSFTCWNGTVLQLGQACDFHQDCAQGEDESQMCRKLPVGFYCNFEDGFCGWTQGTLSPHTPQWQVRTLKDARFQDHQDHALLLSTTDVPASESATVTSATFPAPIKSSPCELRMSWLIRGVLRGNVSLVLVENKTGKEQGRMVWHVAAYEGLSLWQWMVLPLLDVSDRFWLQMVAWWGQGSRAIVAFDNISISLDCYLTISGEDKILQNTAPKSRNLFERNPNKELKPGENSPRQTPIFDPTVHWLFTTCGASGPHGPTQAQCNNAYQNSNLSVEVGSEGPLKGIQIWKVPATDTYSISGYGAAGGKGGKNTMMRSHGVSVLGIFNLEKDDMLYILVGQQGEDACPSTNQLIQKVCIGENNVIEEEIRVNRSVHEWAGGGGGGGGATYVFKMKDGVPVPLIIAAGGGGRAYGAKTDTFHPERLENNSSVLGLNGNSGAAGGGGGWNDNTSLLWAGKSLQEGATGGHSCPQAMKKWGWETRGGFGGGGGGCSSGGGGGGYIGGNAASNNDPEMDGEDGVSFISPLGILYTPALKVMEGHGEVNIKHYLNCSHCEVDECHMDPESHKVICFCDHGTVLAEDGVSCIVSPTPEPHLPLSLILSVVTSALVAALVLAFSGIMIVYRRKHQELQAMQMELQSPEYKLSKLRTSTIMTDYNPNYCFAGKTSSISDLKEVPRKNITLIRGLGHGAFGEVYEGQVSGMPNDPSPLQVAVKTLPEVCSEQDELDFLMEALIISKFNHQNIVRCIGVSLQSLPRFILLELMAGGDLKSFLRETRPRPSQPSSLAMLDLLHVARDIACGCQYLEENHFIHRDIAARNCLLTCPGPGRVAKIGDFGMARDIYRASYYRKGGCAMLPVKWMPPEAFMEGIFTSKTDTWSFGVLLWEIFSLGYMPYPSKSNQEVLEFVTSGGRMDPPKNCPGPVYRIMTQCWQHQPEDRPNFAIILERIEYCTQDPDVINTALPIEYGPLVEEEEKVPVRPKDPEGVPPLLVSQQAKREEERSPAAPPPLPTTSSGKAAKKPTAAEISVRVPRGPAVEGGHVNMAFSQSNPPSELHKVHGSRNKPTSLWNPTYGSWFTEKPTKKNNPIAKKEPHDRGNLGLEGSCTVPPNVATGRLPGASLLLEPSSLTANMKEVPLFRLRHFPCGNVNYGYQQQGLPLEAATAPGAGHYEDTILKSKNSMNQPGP
Sequence of BRK(h) (Q13882 whole entry): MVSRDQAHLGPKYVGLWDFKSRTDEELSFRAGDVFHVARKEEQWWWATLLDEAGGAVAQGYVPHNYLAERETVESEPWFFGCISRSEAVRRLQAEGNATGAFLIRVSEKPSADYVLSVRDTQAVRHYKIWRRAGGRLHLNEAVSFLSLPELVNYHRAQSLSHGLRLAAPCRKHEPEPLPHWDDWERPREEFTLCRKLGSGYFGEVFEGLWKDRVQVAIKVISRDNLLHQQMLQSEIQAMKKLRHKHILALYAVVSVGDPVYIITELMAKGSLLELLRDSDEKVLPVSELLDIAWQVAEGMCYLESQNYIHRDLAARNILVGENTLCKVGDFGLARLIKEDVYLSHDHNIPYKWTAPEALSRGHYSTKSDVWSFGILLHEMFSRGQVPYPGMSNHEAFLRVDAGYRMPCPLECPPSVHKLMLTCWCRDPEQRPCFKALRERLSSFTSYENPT
Sequence of SAPK2a(T106M)(h) (Q16539 whole entry T106M): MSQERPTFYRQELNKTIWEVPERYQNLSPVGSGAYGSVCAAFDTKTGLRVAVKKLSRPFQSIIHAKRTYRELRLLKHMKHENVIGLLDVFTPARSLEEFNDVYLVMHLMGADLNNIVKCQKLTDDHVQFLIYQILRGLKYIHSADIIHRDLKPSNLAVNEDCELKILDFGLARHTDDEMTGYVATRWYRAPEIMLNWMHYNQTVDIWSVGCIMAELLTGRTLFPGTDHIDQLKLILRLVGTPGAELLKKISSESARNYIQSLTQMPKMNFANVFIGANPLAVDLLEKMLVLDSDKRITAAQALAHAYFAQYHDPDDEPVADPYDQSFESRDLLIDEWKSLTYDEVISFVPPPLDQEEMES
Sequence of MLK1(h) (P80192 whole entry): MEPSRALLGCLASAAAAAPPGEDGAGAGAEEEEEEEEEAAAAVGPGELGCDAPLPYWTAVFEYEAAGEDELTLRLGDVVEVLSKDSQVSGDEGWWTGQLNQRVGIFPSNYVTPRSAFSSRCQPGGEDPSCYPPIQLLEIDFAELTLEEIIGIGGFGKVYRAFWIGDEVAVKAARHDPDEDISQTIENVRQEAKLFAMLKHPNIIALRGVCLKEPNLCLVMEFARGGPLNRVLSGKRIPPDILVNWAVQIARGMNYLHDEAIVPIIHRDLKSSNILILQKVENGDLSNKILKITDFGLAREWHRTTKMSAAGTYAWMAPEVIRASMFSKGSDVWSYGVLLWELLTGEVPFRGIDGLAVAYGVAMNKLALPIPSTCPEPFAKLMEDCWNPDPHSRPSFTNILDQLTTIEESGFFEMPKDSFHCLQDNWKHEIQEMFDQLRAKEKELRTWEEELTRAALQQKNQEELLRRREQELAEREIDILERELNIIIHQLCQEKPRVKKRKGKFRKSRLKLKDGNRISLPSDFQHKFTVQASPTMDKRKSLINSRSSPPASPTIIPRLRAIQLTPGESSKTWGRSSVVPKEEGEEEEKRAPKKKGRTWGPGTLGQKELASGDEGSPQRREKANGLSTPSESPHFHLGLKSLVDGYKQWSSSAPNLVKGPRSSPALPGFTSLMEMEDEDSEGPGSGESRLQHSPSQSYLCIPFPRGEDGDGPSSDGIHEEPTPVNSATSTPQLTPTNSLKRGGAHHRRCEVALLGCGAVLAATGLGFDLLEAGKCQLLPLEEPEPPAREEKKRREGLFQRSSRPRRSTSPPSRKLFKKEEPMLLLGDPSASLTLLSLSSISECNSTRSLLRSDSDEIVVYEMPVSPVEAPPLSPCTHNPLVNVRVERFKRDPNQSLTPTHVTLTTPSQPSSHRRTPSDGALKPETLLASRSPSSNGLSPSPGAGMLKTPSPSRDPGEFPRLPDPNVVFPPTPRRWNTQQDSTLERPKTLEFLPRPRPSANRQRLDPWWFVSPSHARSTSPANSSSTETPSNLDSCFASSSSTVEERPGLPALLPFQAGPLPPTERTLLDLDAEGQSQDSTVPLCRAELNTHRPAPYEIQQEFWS

For H-YARAAARQARAKALARQLGVAA-OH [MMI-0100], the activity at 100 µM at ALK(h) amounted to 118%; on BRK(h) it was 70%; at BrSK1(h), 100%; on Itk(h), 99%; at Met(D1246H)(h) it was 99%; at MLK1(h) it was 77%. The activity at 100 µM on Ret(h) was determined as 108%; on SAPK2a(T106M)(h), 101%; on ULK2(h), 123%.

In the case of “HRRIKAWLKKIKALARQLGVAA (Mammalian) [MMI-0500]”, the “% activity” value is 12% with ALK(h); 41% in the assay with BRK(h); 72% in the assay with BrSK1(h); 7% with Itk(h); 150% in the assay with Met(D1246H)(h); 43% in the assay with MLK1(h). For the same substance, the “% activity” value with Ret(h) turned out to be 174%; in the assay with SAPK2a(T106M)(h), 32%; in the assay with ULK2(h) it was 124%.

As for “YARAAARQARAKALNRQLGVA (Mammalian) [MMI-0200]”, the “% activity” value was 95% with ALK(h); 127% with BRK(h); 93% with BrSK1(h); 98% with Itk(h); 139% with Met(D1246H)(h); 84% with MLK1(h). The results for the “% activity” value in the assay with Ret(h), with SAPK2a(T106M)(h) and in the assay with ULK2(h) were 96%, 100% and 132%, respectively.
